Measurements: the supplement of paper PMC7125110
± gives the standard error. This sample holds only a part of the variants without activity.

B1: glmS ribozyme (parent)
chain: AUAAAAGCGCCAGAACUACAGAAAUGUAGUUGACGAGGAGGAGGUUUAUCGAAUUUUCGGCGGAUGCCUCCAAA

Variants of: B1
Assay: self-cleavage kobs at 2500 uM GlcN6P; higher = faster cleavage; RNA array
Settings: with glucosamine-6-phosphate
Procedure, shortened: (§1)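 Weighted Michaelis–Menten fits across concentrations supplied kcat and KM, based on kobs from one- or two-exponential decay fits to normalised per-tile medians. The data came from barcoded ribozyme variants transcribed in situ by E. coli RNA polymerase on sequenced MiSeq chips and tracked at 37 °C by a hybridised Cy3 probe. Glucosamine-6-phosphate (40 μM to 10 mM) in HEPES/KCl/Mg(OAc)2 buffer was flowed in.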

Row | Variant | self-cleavage kobs at 2500 uM GlcN6P [s⁻¹]
1 | AUAAAAGCGCCAGAACUACAGAAAUGUACUUGUCGAGGAGGAGGUUUAUCGAAUUUUCGGCAGUUGCCUCCAAA [G29C A33U G62A A64U] | < 1e-05
2 | AUAAAAACGCCAGAACUACAGAAAUGUAGUUGACGAGCAGGAGGUUUAUCGAAUUUUCGGCGGCUGCCUCCAAA [G7A G38C A64C] | < 1e-05
3 | AUAAAAGCGCCAGAACUACAGAAAUGUAGUUGACGAGGAGGACGUUUAUCCAAUUUUCUGCGGAUGCCUCCAAA [G43C G51C G59U] | < 1e-05
4 | AUAAAAGCGCCAGAACUACAGAAAUGUAGUUGACGAGGAGGGGGCUUAUCGAAUUUUCGGCGGAUGCCUUCAAA [A42G U45C C70U] | 0.00265 ± 0.00085
5 | AUAAAAGCGCCAGUACUACAGAAAUGUAGUUGACGAGGAGGAGGCUUAUCGAAUUUUCGCCGCAUGCCUCCAAA [A14U U45C G60C G63C] | < 1e-05
6 | AUAAAAGCGCCAGAACUACAGAAAUGUAGUUGAUGAGGAGAAGGUUUAUCGUAUUUUCGGCGGAUGCCUCCAAA [C34U G41A A52U] | < 1e-05
7 | AUAAAAGCGCCAGAACUACAGAAAUGUAGUUGACGAUGAGGAGGUUUAUCGAAUUUUCGGCGGAUUCGUCGAAA [G37U G66U C68G C71G] | 4.28e-05 ± 2e-05
8 | AUAAAAGGGCAAGAACUACAGAAAUGUAGUUGUCGAGGAGGAGAUUUAUCGAAUUUUUGGCGGAUGCCUCCAAA [C8G C11A A33U G44A C58U] | < 1e-05
9 | AUAAAAGCGCCAGAACUACAGAAAUGUAGUUGACGAGAAGGAGGUUUAUCGGAUUUACGGCGGAUGCAUCCAAA [G38A A52G U57A C68A] | 7.01e-05 ± 1.7e-05
10 | AUAAAAGCGCCAGAACUACAGAAAUGUAGUUGACGAGGAGGUGGUUUAUCGAACUUUCGGCGGAUGCCUACAAA [A42U U54C C70A] | 7.14e-05 ± 2.1e-05
11 | AUAAAAGCGCCAGAACUACAGAAAUGUAGUUGAGGAGGAGGCGGUUUGUCGAAUUUUCGGCGGAUGCCUCCAAA [C34G A42C A48G] | < 1e-05
12 | AUAAAGGCGCCAGAACUACAGAAAUGUAGUUGACGAGGAGGAGGUUUAUCGAAUUUUCGGCGGACGCUUCCAAA [A6G U65C C68U] | < 1e-05
13 | AUAAAAGGGUUAAAACUACAGAAAUGUAGUUGAGGAGGAGGAGGUUUAUCGAAUUUUCGGCGGAUGCCUCCAAA [C8G C10U C11U G13A C34G] | < 1e-05
14 | AUAAAAGCGCCAAAACUACAGAAAUGUAGUUGUCGAGGAGGAGGUUUAUCGACUUUUCGGCGGAUGCCUCCAAA [G13A A33U A53C] | < 1e-05
15 | AUAAAAGCGCCAGAUCUACAGAAAUGUAGUUCACGCGGACGAGGUUUAUCGAAUUUUCGGCGGAUGCCUCCAAA [A15U G32C A36C G40C] | < 1e-05
16 | AUAAAAGGGCCAGAAGUACAGAAAUGUAGUUGACGAGGAGGAGGUUUAUCGAAUUAUCGGCGGAUGCCUCCAAA [C8G C16G U56A] | < 1e-05
17 | AUAAAAGCGCCAGAAAUACAGAAAUGUAGUUGACGAGGAGGAGGUUUAUCGUAUUUUCGGCGGAUGCCUGCAAA [C16A A52U C70G] | 0.0002 ± 9.8e-05

Row | Variant | self-cleavage kobs at 2500 uM GlcN6P [s⁻¹]
18 | AUAAAAGUGCCAGAACUACAGAAAUGUAGUUGACGAGGAGGAGGUUUAUCGAAUUUUCGGAGGAUGCUUCCAAA [C8U C61A C68U] | < 1e-05
19 | AUAAAAGCGCCAGAACUACAGAAAUGUAGUUGACGAGGAGAAGGUUUUUCGAAUUUCCGAUGGAUGUCUCGAAA [G41A A48U U57C G60A C61U C67U C71G] | < 1e-05
20 | AUAAAAGCGCUAGAAUUACAGAAAUGUAGUUGACGAGGAGGAGGUUUAUCGAAUUUUCGGUGGAUGCCUCCAAA [C11U C16U C61U] | < 1e-05
21 | AUAAAAGCGCCAUGACUACAGAAAUGUAGUUGACGGGGAGGAGGUUUAUCGAAUAUUCGGCGGAUGCCUCCAAA [G13U A14G A36G U55A] | < 1e-05
22 | AUAAAAGCGCCAGAACUACAGAAAUGUAGUCGACGGGGAGAAGGUUUAUCGAAUUUUCGUCGGAUGCCUCCAAA [U31C A36G G41A G60U] | < 1e-05
23 | AUAAAAGUGCCAGAACUACAGAAAUGUAGUUGACGAGGAGGAGGUUUAUCGAAUUUUGGGCGGAUGCCUUCAAA [C8U C58G C70U] | < 1e-05
24 | AUAAAAGCUCCAGAACUACAGAAAUGUAGUUGACGAGGGGGAGCUUUAUCGAAUUUUCGGCGGAUGGCUCCAAA [G9U A39G G44C C67G] | < 1e-05
25 | AUAAAAGCGCCAGAACUACAGAAAUGUAGUCGACGAGGAGGAGGUUUAUCGAAUUAUCGGCGGAUGUCUCCAAA [U31C U56A C67U] | 0.000427 ± 0.00012
26 | AUAAAUGCGCCAGAACUACAGAAAUGUAGUUGACGAGGUGCAGGUUUAUCGAAUUUUCGGCGGAUGCCUCCAAA [A6U A39U G41C] | < 1e-05
27 | AUAAAAGCGCCAGAAAUACAGAAAUGUAGUUGACGAGGAGGAGGUCUAUCGAAUUCUCGGCGUAUGCCUUCAAA [C16A U46C U56C G63U C70U] | < 1e-05
28 | AUAAAAGCGCCAGAACUACAGAAAUGUAGUUGACGAGGAGUAGGUUUAUCGAAGUGUCGACGGAUGCCUACAAA [G41U U54G U56G G60A C70A] | 7.76e-05 ± 2.1e-05
29 | AUAAAAGCCCCAGAACUACAGAAAUGUAGUUGACGAGGAGGAGGUUUGUCGAAUUUUCGGCGGAUGUCUCCAAA [G9C A48G C67U] | < 1e-05
30 | AUAAAAGCUCCAGAACUACAGAAAUGUAGUUGACGAGGAGAAGGUUUAUCGAAUUUUCGGCGGAUGUCUCCAAA [G9U G41A C67U] | < 1e-05
31 | AUAAAAGCGACAUAACUACAGAAAUGUAGUUGACGAGGAGGAGGUUUAUCGAAUUCUCGGCGGAUGCCGCCAAA [C10A G13U U56C U69G] | < 1e-05
32 | AUAAAAGCGCCAGUACUACAGAAAUGUAGGCGACGAGGAGGAGGUUUAUCGAUUUUUCGGCGGAUGCCUCCAAA [A14U U30G U31C A53U] | 0.00047 ± 0.00013
33 | AUAAAAGCGCCAGGACUACAGAAAUGUAGCUGACGAGGCGGAGGUUUAUCGAAAUUUCGGCGGAUGCCUCCAAA [A14G U30C A39C U54A] | 0.000132 ± 2.6e-05

Variants of: B1
Assay: self-cleavage kobs at 10000 uM GlcN6P; higher = faster cleavage; RNA array
Settings: with glucosamine-6-phosphate
Procedure, shortened: as §1

Row | Variant | self-cleavage kobs at 10000 uM GlcN6P [s⁻¹]
34 | AUAAAAGCGCCAGAACUACAGAAAUGUAGUUGACGAGGAGGGGGCUUAUCGAAUUUUCGGCGGAUGCCUUCAAA [A42G U45C C70U] | 0.00197 ± 0.00052
35 | AUAAAAGGGUUAAAACUACAGAAAUGUAGUUGAGGAGGAGGAGGUUUAUCGAAUUUUCGGCGGAUGCCUCCAAA [C8G C10U C11U G13A C34G] | < 1e-05
36 | AUAAAAGCGCCAGAACUACAGAAAUGUAGUCGACGAGGAGGAGGUUUAUCGAAUUAUCGGCGGAUGUCUCCAAA [U31C U56A C67U] | 0.000671 ± 0.00015
37 | AUAAAAGCGCCAGGACUACAGAAAUGUAGCUGACGAGGCGGAGGUUUAUCGAAAUUUCGGCGGAUGCCUCCAAA [A14G U30C A39C U54A] | 0.000156 ± 2.5e-05
